experiment: soluble fraction after stress (log2 fold change); higher = more stays soluble; pooled small domains, quantitative proteomics; conditions: stress: pH 4
Method in brief: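 High-throughput quantitative proteomics was run on pooled custom libraries of small protein domains following pH 4 stress. Fold changes are on a log2 scale; higher values mean more of a domain remained soluble. The fold change in soluble amount is taken as a measure of aggregation propensity.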

Going from “HMTMVVIMNADATQADIEGVISAIEEKGLEAKVMEGAHQKIVGVIGDKTKLAATPLDAMHGVETTVAIS” to “HMTNATVGQIKKLARASILYGNSNLSGNRYTYKANTTVTILQNISSNVDKIRVNVTGRVAYIDNSNYSSST”, the “soluble fraction (log2)” value rises from 0.131 to 0.34.

“HMTNEQLSKAKSWVQIAVYAAEKLYGAGNGDQKLVYAEEILRKHGIRLDTATLKAMIDAQIKEMEN” and “HMTNEWRKILSNLNGKYQIVMELFYVDGFSTKEIARMLHITEVNVRSRMVRGRKQLEQILTVR” are within 0.2 log units of each other in “soluble fraction (log2)” value: 0.131 for the first, 0.0998 for the second.

“HMTNPPITTEARNLVVEQLKELNALHPEKARELADSYKKEFNVPKVIGHITEARHGEFLALAISKIDES” and “HMTNPPTPADTLFNTVRGVLQSILKSPMKDTEVASALNVSKAQARSWLQRLSDEGLIEKRKNPTAYVL” are within 0.2 log units of each other in “soluble fraction (log2)” value: -0.399 for the first, -0.321 for the second.

Going from “HMTNTYEVIKNDIIFGVLPPLKKLKLLELKKKYITSVSTLREILSRLSGDGFVVSKEQKGFYVSAV” to “HMTNVNSLIGKKAIVIQDIDNLKSTGQVKIGGEIWSAQSESNDIISKDTEVEIVKIDGVKLIVRLVPV”, the “soluble fraction (log2)” value rises from -0.22 to 0.225.

First: HMTNYNTEKIIPEEQAGKRLDVVLANIFPEFSRSRLKNWIIDGFILVDGKVLRPRDFVTGGELVSIDVIV
Second: HMTPADEAGNDLDIGQTVKILRRVSEGQYEVSYRGTTWQARALNAQAAVEPSFAVIGGKEGNILLVHL
The “soluble fraction (log2)” value of the first is lower: -0.356 for the first, -0.115 for the second.

Going from “HMTPDVAEFRERLRQILPGEQIEVRTANDGIVLSGTVSSIARLDAALQLAERYAPSRVSNLMSVG” to “HMTPEPVREALTFQEGRVFALAAKNMTNAEIAQSLSLKLKTVENYMSIIYQKLALKNRYELLVYARKSGV”, the “soluble fraction (log2)” value falls from 0.399 to -0.117.

Compared with “HMTPESSLHSGLGKILHDALTAKIQLTNFEAKFLSDMQSKYDLNGSFSWLSSKQQTTLEKILAKYGR”, “HMTPFLVRVDISDLNIRTGAGTNYSRTGQYTGKGIFTILEVKSGQGSDAGWGRLKSGAGWISLDYTTR” is higher in “soluble fraction (log2)” value: 0.0478 for the first, 0.275 for the second.

“HMTPIELIEKTIELIENERKVQKLQQKELALKADIPFPTYKDFIYKKRASLENILKLFIALRLF” and “HMTPKVAVPSFVGWKFEDVERQLGTMGLIRGKVDNHPSEEYSEGRVIWQSVLGEVEKGKVIDFWVSTGPE” are within 0.2 log units of each other in “soluble fraction (log2)” value: -0.88 for the first, -0.776 for the second.

Going from “HMTPNATWQDDAQSLLRDLIQHQPVLIQISAAKRLRDQAEQISRITGGDTVTRDHVEAAGHALGMGVT” to “HMTPPLSKIRNMTPDQQRSSVIEARKKGYNLLQLEGLAKAQGATPADLLVLRNAWAQSEFDQKR”, the “soluble fraction (log2)” value rises from -0.39 to 0.331.

Compared with “HMTPQVALNDTETAIYEKMKQEKQMLLGELRAQFDISNKLWDTSLKTLTKNQLLAVSKEDDLLFVKL”, “HMTPQVTVPDVTGQSFASAKQVLESLGLTVKQQGSTGENDKVIGQNPTSGNADKGATITLTTQDS” is higher in “soluble fraction (log2)” value: -0.437 for the first, -0.154 for the second.

Compared with “HMTPSTVQVHVAGAVKNPGVYVLLENARNIDAITAAGGATSEADLERINLSEFIRDGQRVYVPYKGDPI”, “HMTPTITNALEEAEKAVSEVQEGKKEIELTPQGAYIRHLQHAIADRYGISSTSTGRDPKRKVIIY” is lower in “soluble fraction (log2)” value: 0.0384 for the first, -0.437 for the second.

First: HMTPTNILIVEDEKEIRRFVRTALESEGLRVFESETLQRGLIEAGTRKPDLIILDLGLPDGDGLSYIRDLR
Second: HMTPTRQATVSVAALNVREQPSLQGRRLGKLTQGTTLTVVGPPGEWLKIEYKGETGFVYASYTSLG
The “soluble fraction (log2)” value of the first is lower: -0.662 for the first, -0.0723 for the second.

Going from “HMTPTVEAAKEEVLRVLASAAPRGLTRTELEAEVSFRRTKLRDTLVELERIGRIDSVGRRGNATTYRLIG” to “HMTPVEVNARGVHVDFSKGGILLEDVVRHLILEALRASEWKRGPAAQLLGISKETLRYRMEKYRLYPP”, the “soluble fraction (log2)” value falls from -0.0736 to -0.706.

First: HMTPYEVLVYESLKQKILSGGYAAGEKIPEQSVSEELGVSRSPLRSAIRRLASEGLIEYYPYRGAFVKA
Second: HMTQEAMRSLRKSLQNLSSRQQVIFMLRHYEGLALKEIAEHLGLETGTVKAHLHRAVTQLRKDLVE
The “soluble fraction (log2)” value of the first is lower: -0.751 for the first, -0.112 for the second.

First: HMTQHDIVPLMLKMVDVLTQFVELDIPFLQQERQTRLAALNAMMGRADVSLAEKYRRIMEAYQVETEYG
Second: HMTQLEVDLFERLITISGVGPRLALAVLSGLEPPDLLRAIQDSDIVRLQGIPGVGKKTAERISLELKDKLS
The “soluble fraction (log2)” value of the first is higher: -0.254 for the first, -0.854 for the second.

First: HMTQQYVEWKVYNVTTIKNKYGFRVKLIFQDGSDATQQKGGFTSKKAAEQARTEVIGQLYSNTYVVY
Second: HMTQSGLTQWEFNMLRQALIEMLGEKPGSVFELARLLPLEQEKNVQALRFLLDHDDQFHLKDEYISFVKRT
The “soluble fraction (log2)” value of the first is higher: ≥ 0.43 for the first, -1.82 for the second.

Going from “HMTQTAVFSKGEQEYYFPLSKVLFFETDGNTINVHTADDIYETRYRLYELEEMLPGSFMRISKSAVVNTNR” to “HMTRAEVQALLEKQAKDFEVEVVHRGWKKTVQTPEFAGWYSQQPAEIKALAESDDPAVAIRMLDLFSGTK”, the “soluble fraction (log2)” value falls from -0.161 to -0.644.

Compared with “HMTRETTQAWWEARQTLPSGEQRSAASLSQEASHVRRFYRWAMQQGLTDRNPADWLPDVRQK”, “HMTRIHEEVVNQVHDLVKEGRFKAGDQLPSERELAEIFKVSRTSVREALRALETQGLIISRTGMGNFIAD” is lower in “soluble fraction (log2)” value: -0.062 for the first, -0.472 for the second.

First: HMTRILTEDDIVNFLIRQPDTAYIIAKSFNENERKVKELLDLLIKKNKVREEIVNGVVSYAVN
Second: HMTRKQTIYEFLRRMKSQHGLDAVYSTEEIANAVGVSRANVSSDLNRLFEEQLVEKLPGWPVKYRA
The “soluble fraction (log2)” value of the first is lower: -0.208 for the first, 0.128 for the second.

First: HMTRNEFMTALRKRLSHLPAEEQDAALKYYEEYFDEAESEEEAARQLGSPDAIADRILADYGAG
Second: HMTRPLVILEDVKFPSYNEIVSLTLPDGTRRGGQVLEVSGNKAIVQVFEGTSGIDVKDTHIELTKSS
The “soluble fraction (log2)” value of the first is lower: -0.261 for the first, 0.0449 for the second.

“HMTRQEFIRKLQEALNGKLDAATIQDHLKFYDDYIIEEMRKGKSEQEVLELLGDPWAIAKTIVDAS” and “HMTRQKEAILALLTDSRGEALSASELLARLTRSGSSIGRTTVYRLLSQLVDDGVVRAWRDASRGITLYELS” are the same in “soluble fraction (log2)” value: -0.44 for the first, -0.44 for the second.

“HMTRQPSAKEHAVLTAVKEGLRRDGRAPTVRALADMTGAASTSTVQRRISALIDLGLLRRTDGTLEVVE” and “HMTRRVIRAPAAGIMRSNVKLGDLVKEGDVIAWIGEHEIKAPLTGMVRGLLNDGLAVVGGFKIGDI” are within 0.2 log units of each other in “soluble fraction (log2)” value: 0.202 for the first, 0.157 for the second.

Going from “HMTSEPFYNPRRPQPYWTSETDRHTTYADAVRALAREFSETPEWVESNMGETNDLQEIRRNLSRVKSG” to “HMTSESWAEKSRSLAAAGLIVMGRDAQLKIEGLTNLDPLIEAATASSTRLLTGQTIDELLTIVP”, the “soluble fraction (log2)” value falls from -0.108 to -0.627.

“HMTSEVLTNATIVKMVKAKLSDDIIIDEINNARVNFDVSPEGIKSLTAQNVTEPVIETMKKAVAAQESI” and “HMTSFDVMLKSAGANKLAVVKLVKELTGLGLKEAKDIVDAAPSKVKEGVSKEEAEELQKQLTGAGAEVEL” are within 0.2 log units of each other in “soluble fraction (log2)” value: 0.428 for the first, 0.309 for the second.

Going from “HMTSHYTVLGVKETDTIEMIRTHYRKLILQFHPDKNQHLTEEERKKLEVKVLQIREAYEKIKKEK” to “HMTSIISLAKARSIALQKVPGATSKNIHLSLDDEDDKQVYEGEIKYKQMEYVFEIDAKTGTFLKWTSERD”, the “soluble fraction (log2)” value rises from -0.816 to 0.185.

Compared with “HMTSKTLSAVEGEGLRLDKFLSNQLPELSRTKIQKMINDGLVFVNNTEAKASLILDGSEFIAYTVPD”, “HMTSLAEQAYRHIRDKLSNGAFVPGEQLVNRVLATEIGVSVIPVREAINRLATEGLVKHVPGSGAFVRQ” is higher in “soluble fraction (log2)” value: -0.0789 for the first, 0.197 for the second.

“HMTSLYDILGIAKTADSQTIKTAFKKKALLYHPDKNNGNLKKEEIFKKISTAYQILSDPKSRANYDLSIA” and “HMTSMNNTEELIDMANKIIDNNPNMVLKYKEGRNVLDFFIGQVMKETKGRANPSATSKIFKDLLEK” are within 0.2 log units of each other in “soluble fraction (log2)” value: 0.22 for the first, 0.171 for the second.

“HMTSNKTVPYSELKGLISTGKIEYVGIGNTQIRAVSKSGAGIVTYTARRVIPDDTLIPELEKNGIAYGGI” and “HMTSNSLNLKDEISAFLTKNAGISYSAERIAHALNMDNADQFTPIIQTLAQLEREKKVRVTDKGEFEAVIK” are within 0.2 log units of each other in “soluble fraction (log2)” value: 0.112 for the first, 0.229 for the second.

First: HMTSSKISFIDPVNGGKVSVSLENSTLEKLQNRFGVNSVVRNEAGDVELKDKAQEFVAGWFADIAYTRG
Second: HMTTAGTAIVQTGNSGKLNLREQAYANAGILGRYSNGTAVTVLQKGAAWSYVEVKGQKGYMMSKFLKFTS
The “soluble fraction (log2)” value of the first is lower: -0.89 for the first, -0.341 for the second.

First: HMTTEIVRMKKDVKIGQEITAKDIEVVEVGAYNLPDEVIRSSEEVVGKYVSSELLKGEYVLPSKISDTP
Second: HMTTEPYILTRMPDGSIKAEPNLNYKGPEQKPGSNIQVKGADGRIYLVPIDGQGKPGKPQLVD
The “soluble fraction (log2)” value of the first is lower: -0.53 for the first, 0.127 for the second.

First: HMTTGLETYPGKIAVVSDDFIDGEGRVQLDGALWRAKTKDHQQLKQGDHVTIVNVKGLTLTVMPDD
Second: HMTTGREGLIGAVGTVRQAIAPEGYVFVEGELWRAKSPAGPLEPGTTVRVIAIDGLTLTVMPAE
The “soluble fraction (log2)” value of the first is higher: -0.0405 for the first, -0.564 for the second.

Going from “HMTTGTVKWFNDAKGFGFITPDDRSVDVFVHYSNIVGQSGRRTLMEGERVEYEAIEGPKGPQATDVARA” to “HMTTIFDNINGELRRRHLTQQDLAKTIEIDRRTWSKWQDKNDMPASVLLQIAKWLNVTLDYLTRD”, the “soluble fraction (log2)” value rises from -1.06 to 0.0559.

“HMTTIKLTQEDVEKIKSLPKRTFLIGNLQQTGLYDEKTRRFYYLDANGEWNGRLAIINTPPPPPPPP” and “HMTTKYMVLVNWVKEKVRTNELKTGEKLYSEHEFSRMFHMSRQTVRHGISILERENIVERRQGSGTFIKDA” are within 0.2 log units of each other in “soluble fraction (log2)” value: -0.0951 for the first, -0.223 for the second.

Compared with “HMTTKYVAVHESKDGYWTIASKPSSKEDAEAMLGGTPKNEVGKVVTLEEAKAHKKTLGEEYLYE”, “HMTTMTTGQRIAAKRKEQGLSQENLGEQLGVSRQAIYKWESDASLPDIDKLIALSRLFGVSTDYLLLE” is lower in “soluble fraction (log2)” value: ≥ 0.43 for the first, -1.68 for the second.

Compared with “HMTTQIPEEVQKRVNQFYEALDEEDYGEAKQILEELEKATAPDHPTLIQMRTRYEFDTMELR”, “HMTTTPAERQRTILRSLNRVDPVSVDALARLTGVSVVTIRRDLSDLASRDLIRRVHGGALLPTR” is higher in “soluble fraction (log2)” value: -1.1 for the first, 0.339 for the second.

Compared with “HMTTYSVDLGDIRAVADSDGKLVELTLHAAVTTHYSHSELADRLNLAFTALREEAQADYETRY”, “HMTTYTGVVTGSGVNVRSGAGTSYPVVGSKTMGDVVTITETVSADGMIWGKIDIGWISMNYVRM” is lower in “soluble fraction (log2)” value: -0.0597 for the first, -0.434 for the second.

“HMTVAQEIEARRATIRSSDPAEMARFIRWLIMEGHTEPAADELKKYAENFPEASATTKQLQALLAAR” and “HMTVDIADALRVLGLSDAPDWSDVRAAHRRAIVRTHPDAGGSAGDAARVNQAFDLLRKISGNGERPIPG” are within 0.2 log units of each other in “soluble fraction (log2)” value: 0.147 for the first, 0.0966 for the second.

“HMTVDTSELEEMIDDLIKEHPNEWERYSSGEKKVQGFFVGQVMKATSGQADGKAINQILSKRVKS” and “HMTVDYDKFTKDTVVQHNKFGKGVIIMTSGDGEDKIASIAFQGLGVKRFSLAIAASNLKILGKVNED” are within 0.2 log units of each other in “soluble fraction (log2)” value: 0.000391 for the first, -0.195 for the second.

From the domain aggregation screens of Martell et al. (2025)
